Data reported in US20050042213.

Columns and labels:
[1] = system: T1, pro-heparanase (H60), purified recombinant human 60 kDa latent heparanase
T1 sequence: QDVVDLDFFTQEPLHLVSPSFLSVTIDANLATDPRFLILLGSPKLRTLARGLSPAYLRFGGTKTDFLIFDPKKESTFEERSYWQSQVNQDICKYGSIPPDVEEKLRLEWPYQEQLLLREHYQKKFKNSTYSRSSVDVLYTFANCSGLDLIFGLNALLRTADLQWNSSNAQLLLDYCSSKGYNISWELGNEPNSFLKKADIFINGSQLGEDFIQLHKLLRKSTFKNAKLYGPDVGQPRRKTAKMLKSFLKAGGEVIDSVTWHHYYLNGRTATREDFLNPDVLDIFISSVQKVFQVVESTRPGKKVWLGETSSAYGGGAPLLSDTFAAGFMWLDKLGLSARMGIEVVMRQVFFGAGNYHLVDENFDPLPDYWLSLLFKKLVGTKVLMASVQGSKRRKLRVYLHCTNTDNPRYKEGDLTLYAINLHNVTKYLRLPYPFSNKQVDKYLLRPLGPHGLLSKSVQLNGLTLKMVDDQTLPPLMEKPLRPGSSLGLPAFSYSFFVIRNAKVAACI

[2] = system: T2, Z-Pro-Lys-Lys-Glu-AMC (Peptide 1)
T2 sequence: PKKE

[3] = system: T3, Z-Arg-Arg-AMC
T3 sequence: RR

Row | Substance | heparanase activity after treatment (DMB assay) [1] | processing of pro-heparanase in vitro (Western blot) [1] | Activity (δfluorescence) (δfluorescence) [2] | Activity (δfluorescence) (δfluorescence) [3]
1 | Cathepsin B | Cathepsin B did not activate the pro-heparanase | Cathepsin B in the presence of heparin but not when the cathepsin B inhibitor CA074 was added, also processed the pro-heparanase | 8930 | 53300
2 | Cathepsin D | Cathepsin D treatment caused an increase in heparanase activity and pepstatin A inhibited this activation | When heparin was included in the reaction mixture, heparanase was processed by cathepsin D and a 45 kDa polypeptide was detected |  | 
3 | Cathepsin L |  |  | 0 | 
